# B1: MyrAkt3HA (full length human Akt3 fused to the myristylation signal from human Src at the N-terminus and to an HA-tag at the C-terminus) (protein)
# chain: MGSNKSKPKDASQRRRSSDVTIVKEGWVQKRGEYIKNWRPRYFLLKTDGSFIGYKEKPQDVDLPYPLNNFSVAKCQLMKTERPKPNTFIIRCLQWTTVIERTFHVDTPEEREEWTEAIQAVADRLQRQEEERMNCSPTSQIDNIGEEEMDASTTHHKRKTMNDFDYLKLLGKGTFGKVILVREKASGKYYAMKILKKEVIIAKDEVAHTLTESRVLKNTRHPFLTSLKYSFQTKDRLCFVMEYVNGGELFFHLSRERVFSEDRTRFYGAEIVSALDYLHSGKIVYRDLKLENLMLDKDGHIKITDFGLCKEGITDAATMKTFCGTPEYLAPEVLEDNDYGRAVDWWGLGVVMYEMMCGRLPFYNQDHEKLFELILMEDIKFPRTLSSDAKSLLSGLLIKDPNKRLGGGPDDAKEIMRHSFFSGVNWQDVYDKKLVPPFKPQVTSETDTRYFDEEFTAQTITITPPEKCQQSDCGMLGNWKK
# Molecular target: Crosstide substrate peptide (UBI)
protein,measurement,value
B1,"Kinase activity of anti-HA immunopellets (32P incorporation into substrate peptide, scintillation counting)",Kinase activity present in CMV6[MyrAkt3HA] transfected samples was 20 times higher than that present in cells transfected with the control vector CMV6

# From patent US20030100049
